# Data reported in IntAct's records for PubMed 31515488.
# B1: Ornithine decarboxylase antizyme 3 (Homo sapiens), Q9UMX2 (parent)
# chain: MPCKRCRPSVYSLSYIKRGKTRNYLYPIWSPYAYYLYCYKYRITLREKMLPRCYKSITYKEEEDLTLQPRSCLQCSESLVGLQEGKSTEQGNHDQLKELYSAGNLTVLATDPLLHQDPVQLDFHFRLTSQTSAHWHGLLCDRRLFLDIPYQALDQGNRESLTATLEYVEEKTNVDSVFVNFQNDRNDRGALLRAFSYMGFEVVRPDHPALPPLDNVIFMVYPLERDVGHLPSEPP
# partner: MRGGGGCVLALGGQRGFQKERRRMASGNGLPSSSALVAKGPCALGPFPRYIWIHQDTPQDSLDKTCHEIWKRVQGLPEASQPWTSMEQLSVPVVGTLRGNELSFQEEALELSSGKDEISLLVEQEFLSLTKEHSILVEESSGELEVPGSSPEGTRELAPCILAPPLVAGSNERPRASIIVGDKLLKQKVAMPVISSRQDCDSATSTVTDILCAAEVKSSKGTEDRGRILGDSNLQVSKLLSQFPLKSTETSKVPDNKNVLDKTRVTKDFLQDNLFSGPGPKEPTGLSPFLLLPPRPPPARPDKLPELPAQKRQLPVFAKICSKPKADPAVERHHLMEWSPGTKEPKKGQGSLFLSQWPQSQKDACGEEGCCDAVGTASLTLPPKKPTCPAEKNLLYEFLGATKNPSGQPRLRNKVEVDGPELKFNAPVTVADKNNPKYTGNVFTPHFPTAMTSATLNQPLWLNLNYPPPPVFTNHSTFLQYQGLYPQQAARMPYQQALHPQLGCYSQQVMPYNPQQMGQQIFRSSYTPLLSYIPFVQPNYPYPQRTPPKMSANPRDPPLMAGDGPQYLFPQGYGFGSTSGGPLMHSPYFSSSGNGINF
# B2: Vacuolar-sorting protein SNF8 (Homo sapiens), Q96H20 (parent)
# chain: MHRRGVGAGAIAKKKLAEAKYKERGTVLAEDQLAQMSKQLDMFKTNLEEFASKHKQEIRKNPEFRVQFQDMCATIGVDPLASGKGFWSEMLGVGDFYYELGVQIIEVCLALKHRNGGLITLEELHQQVLKGRGKFAQDVSQDDLIRAIKKLKALGTGFGIIPVGGTYLIQSVPAELNMDHTVVLQLAEKNGYVTVSEIKASLKWETERARQVLEHLLKEGLAWLDLQAPGEAHYWLPALFTDLYSQEITAEEAREALP
# partner: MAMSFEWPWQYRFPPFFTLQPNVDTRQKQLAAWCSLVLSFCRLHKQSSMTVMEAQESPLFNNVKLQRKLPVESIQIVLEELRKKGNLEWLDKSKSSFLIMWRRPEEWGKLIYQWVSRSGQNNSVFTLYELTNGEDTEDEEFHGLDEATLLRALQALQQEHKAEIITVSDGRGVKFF
# B3: Four and a half LIM domains protein 5 (Homo sapiens), Q5TD97 (parent)
# chain: MTTAHFYCQYCTASLLGKKYVLKDDSPYCVTCYDRVFSNYCEECKKPIESDSKDLCYKDRHWHEGCFKCTKCNHSLVEKPFAAKDERLLCTECYSNECSSKCFHCKRTIMPGSRKMEFKGNYWHETCFVCENCRQPIGTKPLISKESGNYCVPCFEKEFAHYCNFCKKVITSGGITFCDQLWHKECFLCSGCRKDLCEEQFMSRDDYPFCVDCYNHLYANKCVACSKPISGLTGAKFICFQDSQWHSECFNCGKCSVSLVGKGFLTQNKEIFCQKCGSGMDTDI
# partner: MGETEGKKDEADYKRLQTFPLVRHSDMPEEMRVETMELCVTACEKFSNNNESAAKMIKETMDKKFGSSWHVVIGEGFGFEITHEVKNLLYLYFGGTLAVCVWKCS
# B4: Nebulette (Homo sapiens), O76041 (parent)
# chain: MRVPVFEDIKDETEEEKIGEEENEEDQVFYKPVIEDLSMELARKCTELISDIRYKEEFKKSKDKCTFVTDSPMLNHVKNIGAFISEAKYKGTIKADLSNSLYKRMPATIDSVFAGEVTQLQSEVAYKQKHDAAKGFSDYAHMKEPPEVKHAMEVNKHQSNISYRKDVQDTHTYSAELDRPDIKMATQISKIISNAEYKKGQGIMNKEPAVIGRPDFEHAVEASKLSSQIKYKEKFDNEMKDKKHHYNPLESASFRQNQLAATLASNVKYKKDIQNMHDPVSDLPNLLFLDHVLKASKMLSGREYKKLFEENKGMYHFDADAVEHLHHKGNAVLQSQVKYKEEYEKNKGKPMLEFVETPSYQASKEAQKMQSEKVYKEDFEKEIKGRSSLDLDKTPEFLHVKYITNLLREKEYKKDLENEIKGKGMELNSEVLDIQRAKRASEMASEKEYKKDLESIIKGKGMQAGTDTLEMQHAKKAAEIASEKDYKRDLETEIKGKGMQVSTDTLDVQRAKKASEMASQKQYKKDLENEIKGKGMQVSMDIPDILRAKRTSEIYSQRKYKDEAEKMLSNYSTIADTPEIQRIKTTQQNISAVFYKKEVGAGTAVKDSPEIERVKKNQQNISSVKYKEEIKHATAISDPPELKRVKENQKNISNLQYKEQNYKATPVSMTPEIERVRRNQEQLSAVKYKGELQRGTAISDPPELKRAKENQKNISNVYYRGQLGRATTLSVTPEMERVKKNQENISSVKYTQDHKQMKGRPSLILDTPAMRHVKEAQNHISMVKYHEDFEKTKGRGFTPVVDDPVTERVRKNTQVVSDAAYKGVHPHIVEMDRRPGIIVDLKVWRTDPGSIFDLDPLEDNIQSRSLHMLSEKASHYRRHWSRSHSSSTFGTGLGDDRSEISEIYPSFSCCSEVTRPSDEGAPVLPGAYQQSHSQGYGYMHQTSVSSMRSMQHSPNLRTYRAMYDYSAQDEDEVSFRDGDYIVNVQPIDDGWMYGTVQRTGRTGMLPANYIEFVN
# partner: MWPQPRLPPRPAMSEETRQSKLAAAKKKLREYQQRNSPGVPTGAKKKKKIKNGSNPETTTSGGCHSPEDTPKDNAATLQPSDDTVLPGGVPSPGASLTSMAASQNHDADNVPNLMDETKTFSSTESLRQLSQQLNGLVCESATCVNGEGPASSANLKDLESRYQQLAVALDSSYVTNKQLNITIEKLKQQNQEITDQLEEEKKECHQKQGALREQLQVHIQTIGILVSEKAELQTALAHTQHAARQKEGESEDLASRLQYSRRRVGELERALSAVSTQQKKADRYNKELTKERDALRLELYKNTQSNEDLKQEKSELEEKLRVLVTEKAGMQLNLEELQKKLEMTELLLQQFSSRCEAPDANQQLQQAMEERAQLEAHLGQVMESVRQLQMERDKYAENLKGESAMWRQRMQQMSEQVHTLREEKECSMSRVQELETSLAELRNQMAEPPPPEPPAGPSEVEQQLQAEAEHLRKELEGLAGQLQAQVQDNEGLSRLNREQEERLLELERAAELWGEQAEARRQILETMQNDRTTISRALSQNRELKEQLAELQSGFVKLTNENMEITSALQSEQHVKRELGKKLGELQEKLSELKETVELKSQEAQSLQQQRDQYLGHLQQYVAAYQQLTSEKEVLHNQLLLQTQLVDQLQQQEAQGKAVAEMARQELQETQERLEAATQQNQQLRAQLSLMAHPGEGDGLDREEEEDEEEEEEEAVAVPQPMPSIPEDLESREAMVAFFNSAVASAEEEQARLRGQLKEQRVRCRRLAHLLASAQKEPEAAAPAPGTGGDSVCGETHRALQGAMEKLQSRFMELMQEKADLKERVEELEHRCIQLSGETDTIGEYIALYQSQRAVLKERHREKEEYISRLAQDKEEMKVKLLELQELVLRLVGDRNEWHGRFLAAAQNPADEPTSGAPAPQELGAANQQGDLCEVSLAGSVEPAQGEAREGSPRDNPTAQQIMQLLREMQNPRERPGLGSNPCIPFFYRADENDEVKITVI
# B5: Hyaluronan mediated motility receptor (Homo sapiens), O75330 (parent)
# chain: MSFPKAPLKRFNDPSGCAPSPGAYDVKTLEVLKGPVSFQKSQRFKQQKESKQNLNVDKDTTLPASARKVKSSESKESQKNDKDLKILEKEIRVLLQERGAQDRRIQDLETELEKMEARLNAALREKTSLSANNATLEKQLIELTRTNELLKSKFSENGNQKNLRILSLELMKLRNKRETKMRGMMAKQEGMEMKLQVTQRSLEESQGKIAQLEGKLVSIEKEKIDEKSETEKLLEYIEEISCASDQVEKYKLDIAQLEENLKEKNDEILSLKQSLEENIVILSKQVEDLNVKCQLLEKEKEDHVNRNREHNENLNAEMQNLKQKFILEQQEREKLQQKELQIDSLLQQEKELSSSLHQKLCSFQEEMVKEKNLFEEELKQTLDELDKLQQKEEQAERLVKQLEEEAKSRAEELKLLEEKLKGKEAELEKSSAAHTQATLLLQEKYDSMVQSLEDVTAQFESYKALTASEIEDLKLENSSLQEKAAKAGKNAEDVQHQILATESSNQEYVRMLLDLQTKSALKETEIKEITVSFLQKITDLQNQLKQQEEDFRKQLEDEEGRKAEKENTTAELTEEINKWRLLYEELYNKTKPFQLQLDAFEVEKQALLNEHGAAQEQLNKIRDSYAKLLGHQNLKQKIKHVVKLKDENSQLKSEVSKLRCQLAKKKQSETKLQEELNKVLGIKHFDPSKAFHHESKENFALKTPLKEGNTNCYRAPMECQESWK
# Variants of: B1
# Conditions: with ca094_human C1orf94, Q6P1W5
row,Variant,effect of a mutation on the interaction
1,V174A,disrupting interaction strength
2,R193Q,with no effect

# Variants of: B2
# Conditions: with vps25_human VPS25, Q9BRG1
row,Variant,effect of a mutation on the interaction
1,Q185R,with no effect
2,A17T,with no effect

# Variants of: B3
# Conditions: with dnal4_human DNAL4, O96015
row,Variant,effect of a mutation on the interaction
1,R204G,with no effect
2,M202L,with no effect
3,R60W,with no effect
4,D24Y,with no effect

# Variants of: B4
# Conditions: with goga2_human GOLGA2, Q08379
row,Variant,effect of a mutation on the interaction
1,M351V,with no effect
2,R613Q,with no effect

# Variants of: B5
# Conditions: with morn4_human MORN4, Q8NDC4
# morn4_human MORN4, Q8NDC4, sequence (Q8NDC4 whole entry): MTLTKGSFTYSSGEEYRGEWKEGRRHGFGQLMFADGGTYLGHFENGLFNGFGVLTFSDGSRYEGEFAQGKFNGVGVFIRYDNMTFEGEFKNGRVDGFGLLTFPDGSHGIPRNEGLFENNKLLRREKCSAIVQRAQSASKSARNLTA
row,Variant,effect of a mutation on the interaction
1,V368A,with no effect
